Target: GST-eIF3h (human, UniProt O15372 1-352)
Experiment: pull-down

Sequence of GST-eIF3h (O15372 whole entry): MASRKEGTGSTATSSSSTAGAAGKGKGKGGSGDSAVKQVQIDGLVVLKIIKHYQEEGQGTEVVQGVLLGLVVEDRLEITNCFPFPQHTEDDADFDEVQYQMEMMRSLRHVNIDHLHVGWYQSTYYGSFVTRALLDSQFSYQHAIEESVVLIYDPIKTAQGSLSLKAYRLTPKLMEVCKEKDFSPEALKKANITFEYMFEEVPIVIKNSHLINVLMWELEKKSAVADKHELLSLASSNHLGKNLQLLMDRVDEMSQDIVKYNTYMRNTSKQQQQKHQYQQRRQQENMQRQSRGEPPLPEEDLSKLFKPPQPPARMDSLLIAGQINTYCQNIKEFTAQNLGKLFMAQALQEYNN

B1: His-METTL3 1-200 amino acid fragment (domain or fragment)
chain: MSDTWSSIQAHKKQLDSLRERLQRRRKQDSGHLDLRNPEAALSPTFRSDSPVPTAPTSGGPKPSTASAVPELATDPELEKKLLHHLSDLALTLPTDAVSICLAISTPDAPATQDGVESLLQKFAAQELIEVKRGLLQDDAHPTLVTYADHSKLSAMMGAVAEKKGPGEVAGTVTGQKRRAEQDSTTVAAFASSLVSGLNS
binding result: binds

Reference: PMC6234840 (Nature, 2018)
